Experimental findings from patent US20240317847A1 (Bayer, published 2024) are described below.

The target in test [1] is T1, human IL-11 (Invigate, e.g., lot #C121021-19) (human, UniProt P20809 22-199).
T1 construct: Bought protein; also called hIL-11; hIL11
T1 sequence: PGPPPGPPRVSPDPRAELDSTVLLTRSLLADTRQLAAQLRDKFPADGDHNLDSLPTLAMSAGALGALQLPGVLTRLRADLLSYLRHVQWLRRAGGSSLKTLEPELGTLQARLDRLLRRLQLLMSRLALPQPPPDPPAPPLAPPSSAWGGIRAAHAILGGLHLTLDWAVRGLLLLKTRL
Nature of the test: Tri-complex ELISA: antibody titrated against 8 nM human IL-11, 2 nM human gp130-human-Fc and 2 nM murine IL11RA-murine-Fc. As to the method: (§1) In the Tri-complex ELISA format IL-11 antibodies are tested for their ability to inhibit the formation of a complex consisting of murine or human gp130-Fc fusion protein, with murine or human IL-11, and a murine IL11RA-Fc fusion protein. The assay format was adapted according to FIG. 18 (a, b), depending on whether murine or human IL-11 IgG antibodies were tested.
(§2) The assay was performed using High Binding microtiter plates (Greiner, #781077). In a first step, 25 μl of goat anti human IgG (Sigma, #12136), diluted 1:1000 in coating buffer (Candor, #121125) was coated on the plate at 4° C. overnight. Next day, the plate was washed one time with 50 μl PBST and then blocked with 50 μl SmartBlock (Candor, #113125) for one hour at room temperature (RT). […] After three additional washes of the coated and blocked microtiter plate with PBS-T, 25 μl of each mixture were added and the assay plate was incubated for one hour at room temperature. After three additional washes, anti-mouse-gp130 biotinylated antibody (R&D, #BAF468) or anti-human gp130 biotinylated antibody (R&D, #BAF228), both 1:1000 in 10% SmartBlock PBS-T, was added and incubated for 1 hour at RT. After three additional washes, a Streptavidin-Peroxidase conjugate (Sigma, #S5512) 1:1000 in SmartBlock PBS-T was added and incubated for one hour at room temperature. After a final three washes, AmplexRed (Fisher Scientific, A12222), 1/1000 in PBS, 0,003% H₂O₂, was added as substrate and incubated for 15 min at RT in the dark. Then, the fluorescence was measured with a plate reader at 535/595 nm. Signals from dose responses were used to calculate IC50 values using GraphPad Prism software.

In test [2] the target is T2, murine IL-11 (Invigate, e.g., lot #C210819-09) (mouse, UniProt P47873 22-199).
T2 construct: Bought protein; biotinylated where captured on streptavidin plates; also called mIL-11; mIL11
T2 sequence: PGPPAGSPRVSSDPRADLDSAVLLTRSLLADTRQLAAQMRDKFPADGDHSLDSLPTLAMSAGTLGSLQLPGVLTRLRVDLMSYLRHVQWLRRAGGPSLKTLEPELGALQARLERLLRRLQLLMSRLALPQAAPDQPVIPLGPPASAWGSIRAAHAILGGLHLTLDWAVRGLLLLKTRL
Nature of the test: Tri-complex ELISA: antibody titrated against 8 nM murine IL-11, 2 nM murine gp130-human-Fc and 2 nM murine IL11RA-murine-Fc. As to the method:
as §1, §2

Test [3] has as its target T2, murine IL-11 (Invigate, e.g., lot …). Put plainly: cell-based or functional assay.
Test [4] deals with T1, human IL-11 (Invigate, e.g., lot …). Nature of the test: cell-based or functional assay.
Test [5] addresses T2, murine IL-11 (Invigate, e.g., lot …). Put plainly: SPR, Biacore T200, 25 C; antibody captured via anti-mouse Fc, IL-11 as analyte, 1:1 Langmuir fit. As to the method: (§3) Antibodies were captured via anti-mouse Fc IgGs (“Mouse antibody capture kit, Order No. BR100383, Cytiva) covalently amine coupled to a Series S CM5 sensor chip (Cytiva). The amine coupling was carried out according to the manufacturer's instructions using 1-ethyl-3-(3-dimethylaminopropyl) carbodiimide hydrochloride (EDC), N-hydroxysuccinimide (NHS) and ethanolamine HCl, pH 8.5 (“Amine Coupling Kit” BR-1000-50, Cytiva.). Human IL-11 (Invigate, e.g., lot #C121021-19), and murine IL-11 (Invigate, e.g., lot #C210819-09) were used as analytes. […] Based on that experiment an IL-11 concentration range was chosen to optimally determine kinetics and affinity of anti-IL-11 antibodies in multicycle kinetics mode. The sensor surface was regenerated with glycine pH 1.7 after each antigen injection. Obtained sensorgrams were double referenced (subtraction of reference flow cell signal and buffer injection) and were fitted to a 1:1 Langmuir binding model to derive kinetic data using the Biacore T200 Evaluation software or the Biacore Insight software.

Test [6] deals with T1, human IL-11 (Invigate, e.g., lot …). Described as above. As to the method: as §3
Test [7] deals with T2, murine IL-11 (Invigate, e.g., lot …). Nature of the test: Di-complex ELISA: biotinylated murine IL-11 on streptavidin plate, antibody titrated against 2 nM canine IL11RA-human-Fc (competitor). As to the method: (§4) In the Di-complex ELISA format anti IL-11 antibodies are tested for the ability to interfere with the formation of complexes consisting of immobilized murine IL-11 (Invigate, e.g., lot #C210819-09) or human IL-11 (Invigate, e.g., lot #C121021-19), and murine IL11RA-Fc fusion proteins or canine IL11RA-human-Fc fusion protein (FIG. 17a, b).
(§5) The assay is performed using streptavidin coated microtiter plates (Greiner bio-one, #781997). In a first step, 10 nM biotinylated mouse IL-11 (Invigate, Germany, e.g., lot #C210819-09) or human IL-11 (Invigate, Germany, e.g., lot #C121021-19) is coated in 25 μl PBS on the plate at 4° C. overnight. Next day, the plate is washed three times with 50 μl PBST and then blocked with 50 μl SmartBlock (Candor, #113125) for one hour at room temperature (RT). After additional three washes with PBST, 25 μl of a mixture of the murine anti IL-11 antibody and recombinant canine IL11RA-Fc fusion protein (Sino Biological, #70078-D02H) in PBS-T, 10% Smartblock are added simultaneously to the plate and incubated for one hour at RT. […] After three additional washes with PBS-T, 25 μl anti-human-POD (Sigma, #A0170) in PBS-T, 10% Smartblock is added and incubated for 1 hour at RT. After a final three washes with PBS-T, 25 μl AmplexRed (Fisher Scientific, A12222), 1/1000 in PBS, 0,003% H₂O₂, is added as substrate and incubated for 15 min at RT in the dark. Then, the fluorescence is measured with a plate reader at 535/595 nm. Signals from dose responses were used to calculate IC50 values (GraphPad Prism). Efficacy was calculated as [(signal measured at lowest antibody concentration−signal measured at the highest antibody concentration)×100] divided by (signal measured at lowest antibody concentration−signal measured in the absence of IL11Ra).

For test [8], the target named is T1, human IL-11 (Invigate, e.g., lot …). Nature of the test: Di-complex ELISA: biotinylated human IL-11 on streptavidin plate, antibody titrated against 2 nM canine IL11RA-human-Fc (competitor). As to the method: as §4, §5

B1: TPP-18063 (antibody, mouse IgG1, V domains shown)
VH: EVQLLESGGGLVQPGGSLRLSCAASGFTFSDYYMSWIRQAPGKGLEWVSGINWNGGSTGYADSVKGRFTISRDNSKNTLYLQMNSLRAEDTAVYYCATWDGPFDYWGQGTLVTVSS
VL: QSVLTQPPSASGTPGQRVTISCTGSSSNIGAGYDVHWYQQLPGTAPKLLIYYDDLLPSGVPDRFSGSKSGTSASLAISGLRSEDEADYYCQSYDSSLGGSVFGGGTKLTVLG
notes: mIgG1, Lambda
For B1, the “Efficacy (%)” value in test [1] was 60.6%; in test [2], 36.3%; in test [7], 68.9%; in test [8], 42%. In addition, the IC50 was found to be 92 nM in test [1], 170 nM in test [2], 12 nM in test [7] and 54 nM in test [8]. The “Efficacy (%), Stat3 reporter gene assay, mouse Il11ra, 3.13 nM mIL-11” value in test [3] came out at 60%. Besides, the “IC50 [M], Stat3 reporter gene assay, HEK 293F transfected with mouse Il11ra, 3.13 nM mIL-11” value in test [3] was found to be 9.5e-08 M. Moreover, in test [4], the “Efficacy (%), Stat3 reporter gene assay, human IL11RA, 0.78 nM hIL-11” value is 54.3%. Further, the “IC50 [M], Stat3 reporter gene assay, HEK 293F transfected with human IL11RA, 0.78 nM hIL-11” value in test [4] worked out at 1.1e-07 M. Further, the Kd in test [5] was 10 nM; in test [6], 53 nM.

B2: TPP-18068 (antibody, mouse IgG1)
heavy: EVQLLESGGGLVQPGGSLRLSCAASGFTFSSYGMHWVRQAPGKGLEWVSVISYDGSYKYYADSVKGRFTISRDNSKNTLYLQMNSLRAEDTAVYYCAAGVPDYWGQGTLVTVSSAKTTPPSVYPLAPGSAAQTNSMVTLGCLVKGYFPEPVTVTWNSGSLSSGVHTFPAVLQSDLYTLSSSVTVPSSTWPSETVTCNVAHPASSTKVDKKIVPRDCGCKPCICTVPEVSSVFIFPPKPKDVLTITLTPKVTCVVVDISKDDPEVQFSWFVDDVEVHTAQTQPREEQFNSTFRSVSELPIMHQDWLNGKEFKCRVNSAAFPAPIEKTISKTKGRPKAPQVYTIPPPKEQMAKDKVSLTCMITDFFPEDITVEWQWNGQPAENYKNTQPIMDTDGSYFVYSKLNVQKSNWEAGNTFTCSVLHEGLHNHHTEKSLSHSPGK
light: QSVLTQPPSASGTPGQRVTISCTGSSSNIGAGYDVHWYQQLPGTAPKLLIYSNNERPSGVPDRFSGSKSGTSASLAISGLRSEDEADYYCAAWDDSLNGPVFGGGTKLTVLGQPKSSPSVTLFPPSSEELETNKATLVCTITDFYPGVVTVDWKVDGTPVTQGMETTQPSKQSNNKYMASSYLTLTARAWERHSSYSCQVTHEGHTVEKSLSRADCS
notes: mIgG1, Lambda
For the molecule B2, the “Efficacy (%)” value in test [1] came to 7.3%; in test [2], 37.1%; in test [7], 72.7%; in test [8], 19.6%. Besides, the concentration for half-maximal inhibition (IC50) in test [2] came out at 66 nM; in test [7], 2.5 nM. In addition, in test [3], the “Efficacy (%), Stat3 reporter gene assay, mouse Il11ra, 3.13 nM mIL-11” value came out at 84.1%. Further, the “IC50 [M], Stat3 reporter gene assay, HEK 293F transfected with mouse Il11ra, 3.13 nM mIL-11” value in test [3] came to 2.67e-09 M. In addition, in test [4], the “Efficacy (%), Stat3 reporter gene assay, human IL11RA, 0.78 nM hIL-11” value was determined as 20.7%. Further, the “IC50 [M], Stat3 reporter gene assay, HEK 293F transfected with human IL11RA, 0.78 nM hIL-11” value in test [4] is 4.83e-09 M. Further, the Kd in test [5] is 0.72 nM; in test [6] it was 48 nM.
